Measured values taken from doi:10.1101/2024.12.28.630591 (bioRxiv, 2024).

T1: Gα13 K94E/R97E (human, UniProt Q14344 1-377, K94E | R97E)
T1 sequence (looked up): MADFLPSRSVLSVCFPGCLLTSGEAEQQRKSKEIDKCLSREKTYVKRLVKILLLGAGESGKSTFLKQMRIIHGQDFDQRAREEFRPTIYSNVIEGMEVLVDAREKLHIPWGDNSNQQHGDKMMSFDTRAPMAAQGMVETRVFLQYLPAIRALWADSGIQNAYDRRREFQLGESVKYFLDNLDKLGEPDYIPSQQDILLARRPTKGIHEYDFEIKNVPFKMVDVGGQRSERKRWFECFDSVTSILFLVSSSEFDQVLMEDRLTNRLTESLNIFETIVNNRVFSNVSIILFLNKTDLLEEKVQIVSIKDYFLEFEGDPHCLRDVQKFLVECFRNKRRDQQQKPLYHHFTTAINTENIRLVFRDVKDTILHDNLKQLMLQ

T2: Gα13 P202A (human, UniProt Q14344 1-377, P202A)
T2 sequence (looked up): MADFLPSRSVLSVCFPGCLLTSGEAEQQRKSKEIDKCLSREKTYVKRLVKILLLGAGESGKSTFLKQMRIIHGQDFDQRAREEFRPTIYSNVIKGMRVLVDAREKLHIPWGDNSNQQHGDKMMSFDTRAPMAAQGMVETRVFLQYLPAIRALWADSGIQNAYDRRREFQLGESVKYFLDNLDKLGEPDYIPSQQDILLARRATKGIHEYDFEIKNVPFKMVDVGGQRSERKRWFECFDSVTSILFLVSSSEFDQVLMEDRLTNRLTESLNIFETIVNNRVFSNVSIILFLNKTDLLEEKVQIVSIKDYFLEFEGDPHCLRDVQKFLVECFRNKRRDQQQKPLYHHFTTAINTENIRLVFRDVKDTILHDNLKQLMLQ

T3: Gα13 R279A (human, UniProt Q14344 1-377, R279A)
T3 sequence (looked up): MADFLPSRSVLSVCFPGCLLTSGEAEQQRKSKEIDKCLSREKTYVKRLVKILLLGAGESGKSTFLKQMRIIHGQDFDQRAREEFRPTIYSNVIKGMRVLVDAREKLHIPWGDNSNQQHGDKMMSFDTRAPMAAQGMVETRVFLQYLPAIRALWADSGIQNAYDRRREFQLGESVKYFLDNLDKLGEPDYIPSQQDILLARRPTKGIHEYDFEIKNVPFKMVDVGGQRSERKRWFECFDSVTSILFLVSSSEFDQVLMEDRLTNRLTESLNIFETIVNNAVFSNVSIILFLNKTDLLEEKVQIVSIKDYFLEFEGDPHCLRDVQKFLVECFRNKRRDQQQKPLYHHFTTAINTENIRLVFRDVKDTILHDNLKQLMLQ

T4: Gα13 (human, UniProt Q14344 1-377)
T4 sequence: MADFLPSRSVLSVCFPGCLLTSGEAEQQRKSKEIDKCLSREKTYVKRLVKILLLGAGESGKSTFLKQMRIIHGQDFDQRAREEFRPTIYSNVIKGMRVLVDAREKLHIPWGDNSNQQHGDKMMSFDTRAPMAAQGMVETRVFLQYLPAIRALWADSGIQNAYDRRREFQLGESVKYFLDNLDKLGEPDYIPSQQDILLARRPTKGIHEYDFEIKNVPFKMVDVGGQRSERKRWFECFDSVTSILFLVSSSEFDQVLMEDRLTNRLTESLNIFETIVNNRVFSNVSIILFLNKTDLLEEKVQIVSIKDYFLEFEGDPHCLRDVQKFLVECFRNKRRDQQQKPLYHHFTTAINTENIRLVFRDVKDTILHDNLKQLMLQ

T5: Gα12 (human, UniProt Q03113 1-381)
T5 sequence: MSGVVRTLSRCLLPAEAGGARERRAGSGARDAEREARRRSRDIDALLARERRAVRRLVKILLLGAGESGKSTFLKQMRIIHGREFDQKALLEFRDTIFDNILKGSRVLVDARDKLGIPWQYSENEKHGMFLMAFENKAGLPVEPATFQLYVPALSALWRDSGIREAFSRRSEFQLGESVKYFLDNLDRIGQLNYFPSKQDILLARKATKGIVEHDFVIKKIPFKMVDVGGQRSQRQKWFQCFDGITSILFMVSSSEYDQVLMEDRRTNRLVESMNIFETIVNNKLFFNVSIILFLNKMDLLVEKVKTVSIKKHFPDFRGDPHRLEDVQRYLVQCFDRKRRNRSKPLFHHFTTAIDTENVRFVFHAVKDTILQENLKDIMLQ


Experiments:
Assay in all cases: FRET or BRET
[1] = biological target: Gα13 with mutations in three helical domain residues
[2] = biological target: Gα13 R201V (human) (UniProt Q14344)
[3] = biological target: T1, Gα13 K94E/R97E
[4] = biological target: T2, Gα13 P202A
[5] = biological target: T3, Gα13 R279A
[6] = biological target: T4, Gα13
[7] = biological target: T5, Gα12

| Binder | percent reduction of recruitment against WT Gα13 [1] [%] | percent reduction of recruitment against WT Gα13 [2] [%] | percent reduction of recruitment against WT Gα13 [3] [%] | percent reduction of recruitment against WT Gα13 [4] [%] | percent reduction of recruitment against WT Gα13 [5] [%] | percent reduction of recruitment against WT p115RhoGEF sensor [6] [%] | percent reduction of recruitment against WT p115RhoGEF sensor [7] [%] |
| --- | --- | --- | --- | --- | --- | --- | --- |
| p115 RhoGEF (21-244)-RlucII (domain or fragment, UniProt Q92888 21-244, looked up) VSIIGAEDEDFENELETNSEEQNSQFQSLEQVKRRPAHLMALLQHVALQFEPGPLLCCLHADMLGSLGPKEAKKAFLDFYHSFLEKTAVLRVPVPPNVAFELDRTRADLISEDVQRRFVQEVVQSQQVAVGRQLEDFRSKRLMGMTPWEQELAQLEAWVGRDRASYEARERHVAERLLMHLEEMQHTISTDEEKSAAVVNAIGLYMRHLGVRTKSGDKKSGRNF | 27 to 81 | 26 | 81 | 37 | 50 |  |  |
| p115 RhoGEF (21-244)-RlucII E27A (domain or fragment) VSIIGAADEDFENELETNSEEQNSQFQSLEQVKRRPAHLMALLQHVALQFEPGPLLCCLHADMLGSLGPKEAKKAFLDFYHSFLEKTAVLRVPVPPNVAFELDRTRADLISEDVQRRFVQEVVQSQQVAVGRQLEDFRSKRLMGMTPWEQELAQLEAWVGRDRASYEARERHVAERLLMHLEEMQHTISTDEEKSAAVVNAIGLYMRHLGVRTKSGDKKSGRNF |  |  |  |  |  | ~50 | ~50 |
| p115 RhoGEF (21-244)-RlucII I23A (domain or fragment) VSAIGAEDEDFENELETNSEEQNSQFQSLEQVKRRPAHLMALLQHVALQFEPGPLLCCLHADMLGSLGPKEAKKAFLDFYHSFLEKTAVLRVPVPPNVAFELDRTRADLISEDVQRRFVQEVVQSQQVAVGRQLEDFRSKRLMGMTPWEQELAQLEAWVGRDRASYEARERHVAERLLMHLEEMQHTISTDEEKSAAVVNAIGLYMRHLGVRTKSGDKKSGRNF |  |  |  |  |  | ~50 | ~50 |
| p115 RhoGEF (21-244)-RlucII I23F (domain or fragment) VSFIGAEDEDFENELETNSEEQNSQFQSLEQVKRRPAHLMALLQHVALQFEPGPLLCCLHADMLGSLGPKEAKKAFLDFYHSFLEKTAVLRVPVPPNVAFELDRTRADLISEDVQRRFVQEVVQSQQVAVGRQLEDFRSKRLMGMTPWEQELAQLEAWVGRDRASYEARERHVAERLLMHLEEMQHTISTDEEKSAAVVNAIGLYMRHLGVRTKSGDKKSGRNF |  |  |  |  |  | ~50 | ~50 |
| PDZ RhoGEF-RlucII sensor (domain or fragment, UniProt O15085 281-483, looked up) QGVDQSPKPLIIGPEEDYDPGYFNNESDIIFQDLEKLKSRPAHLGVFLRYIFSQADPSPLLFYLCAEVYQQASPKDSRSLGKDIWNIFLEKNAPLRVKIPEMLQAEIDSRLRNSEDARGVLCEAQEAAMPEIQEQIHDYRTKRTLGLGSLYGENDLLDLDGDPLRERQVAEKQLAALGDILSKYEEDRSAPMDFALNTYMSHA |  |  | 71 |  | 50 |  |  |
